Measured values as given in patent US20230393144A1 (I MAB BIOPHARMA US, published 2023).

Target: T1, anti-CD47 antibody TJC4
T1 construct: Tested as whole antibody; It was detected with an anti-human IgG4 secondary antibody, so it is human IgG4; also called therapeutic anti-CD47 antibody
Test: indirect ELISA / blocking IC50 of the purified hybridoma antibody against anti-CD47 TJC4
From the text: The binding of the anti-idiotypic antibodies generated in Examples 2 and 3 to anti-CD47 TJC4 antibody was characterized by indirect ELISA assay, and the IC₅₀ of the anti-idiotypic antibodies was used as a measure of their potential effectiveness in reducing interference by a therapeutic anti-CD47 antibody in a serological assay. Lower IC₅₀ values indicated stronger blocking ability. […] The IC₅₀ value for 9F9H11H8, and, therefore, the blocking ability of 9F9H11H8, was better than those of 37F8C4G12 and 34D8H11B5 (i.e., anti-idiotypic antibodies produced by other hybridoma clones).

T1 sequence (VH, as listed by the source, chain 1 of 2): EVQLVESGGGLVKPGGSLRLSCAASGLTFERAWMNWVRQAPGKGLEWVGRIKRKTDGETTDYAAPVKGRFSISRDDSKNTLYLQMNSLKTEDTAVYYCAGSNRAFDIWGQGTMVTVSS
T1 sequence (VL, as listed by the source, chain 2 of 2): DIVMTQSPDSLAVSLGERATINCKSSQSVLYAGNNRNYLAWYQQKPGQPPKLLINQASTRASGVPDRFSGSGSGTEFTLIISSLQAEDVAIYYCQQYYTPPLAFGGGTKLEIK

IC50: 0.382 µg/mL
B1: anti-idiotypic antibody 9F9H11H8 (antibody, V domains shown)
VH: QIQLVQSGPELKKPGETVKISCKASGFTFTNYGMNWVRQAPGKGLKWMGWINTYTGQPTHADDFKGRFAFSLETSARTAFLEINSLQNEDTATYFCARGGMGVRLRYFDVWGAGTTVTVSS
VL: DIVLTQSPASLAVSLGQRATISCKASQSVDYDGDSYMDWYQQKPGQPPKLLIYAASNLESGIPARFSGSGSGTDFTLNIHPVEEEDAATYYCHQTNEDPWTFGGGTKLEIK
notes: also called 9F9H11F8
